Assay: Human insulin infusion via implanted drug delivery catheter system (DDCS) in rats, plasma insulin and glucose versus time
Assay type: in vivo
Conditions: for Time at which blood insulin levels peaked post infusion: human insulin 10 milliU/kg/min, 20 weeks post implantation
Text: The devices were implanted in 4 rats weighing ˜350 gm. Each animal was implanted with 2 devices: a mesenteric DDCS, implanted within the loose connective tissue of the bowel mesentery, and a subcutaneous DDCS implanted in the dorsal subcutaneous loose connective tissue. Catheters were primed with saline and proximal ends sealed. Catheters were then coiled and secured within the abdominal and subcutaneous spaces, respectively. There were no perioperative surgical complications and all 4 animals increased to a mean weight of 592±83 gm by 20 weeks.
The proximal portion of the catheters was exteriorized at 20-weeks post implantation and human insulin infusions were started at 10 milliU/kg/min with infusion rates of 60 μL/hr after careful determination of catheter dead space volume. Two animals were randomly assigned to receive insulin via mesenteric DDCS and two animals received infusions via subcutaneous DDCS. When the infusion was terminated, depth of anesthesia was increased and DDCS and surrounding tissue were explanted and immediately immersed in 10% buffered formalin for histological analysis. Tissue specimens were embedded in paraffin and 7-10 microns sections were prepared for H and E stains.

insulin
Time at which blood insulin levels peaked post infusion (mesenteric DDCS): ≤ 5 min | Blood glucose concentrations during insulin infusion (mesenteric and subcutaneous DDCS, 10 milliU/kg/min, measured at 5, 15, 30 min, not fasted, isoflurane anesthesia): decreased in proportion to increasing insulin concentrations | Time at which blood insulin levels peaked post infusion (subcutaneous DDCS): ≤ 5 min

Source: US6471689B1, “Implantable drug delivery catheter system with capillary interface” (Thomas Jefferson University, priority 1999, dated 2002)
